We go through one molecule from PMC6378141 (Molecular psychiatry, 2018).

This assay has as its target T1, D2R(L123W:R132L), short isoform, fused to Rluc8 (human, UniProt P14416-2 1-414, L123W | R132L).
T1 sequence: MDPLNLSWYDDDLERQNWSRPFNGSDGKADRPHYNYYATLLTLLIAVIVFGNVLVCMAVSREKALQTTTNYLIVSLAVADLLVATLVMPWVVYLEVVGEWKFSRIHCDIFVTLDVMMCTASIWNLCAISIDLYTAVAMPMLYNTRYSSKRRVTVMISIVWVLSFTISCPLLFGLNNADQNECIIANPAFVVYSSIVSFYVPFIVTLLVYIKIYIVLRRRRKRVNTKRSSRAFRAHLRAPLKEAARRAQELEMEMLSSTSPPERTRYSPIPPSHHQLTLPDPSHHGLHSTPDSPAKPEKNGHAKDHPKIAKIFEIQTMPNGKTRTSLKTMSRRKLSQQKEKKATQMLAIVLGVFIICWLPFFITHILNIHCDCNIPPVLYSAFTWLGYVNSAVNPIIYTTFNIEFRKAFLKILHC
Kind of assay: FRET or BRET. A general note: In BRET a luciferase serves as donor, and the signal depends on an acceptor being close.

B1: bovine arrestin-2 fused to mVenus at its N-terminus (natural protein)
chain: MGDKGTRVFKKASPNGKLTVYLGKRDFVDHIDLVEPVDGVVLVDPEYLKERRVYVTLTCAFRYGREDLDVLGLTFRKDLFVANVQSFPPAPEDKKPLTRLQERLIKKLGEHAYPFTFEIPPNLPCSVTLQPGPEDTGKACGVDYEVKAFCAENLEEKIHKRNSVRLVIRKVQYAPERPGPQPTAETTRQFLMSDKPLHLEASLDKEIYYHGEPISVNVHVTNNTNKTVKKIKISVRQYADICLFNTAQYKCPVAMEEADDTVAPSSTFCKVYTLTPFLANNREKRGLALDGKLKHEDTNLASSTLLREGANREILGIIVSYKVKVKLVVSRGGLLGDLASSDVAVELPFTLMHPKPKEEPPHREVPEHETPVDTNLIELDTNDDDIVFEDFARQRLKGMKDDKEEEEDGTGSPRLNDR
As to B1, the “maximal DA-induced recruitment, % of D2R-WT” value is 132 % of D2R-WT.
